Data taken from PMC4669440.

Columns and labels:
Conditions in all cases: glycan lost; control: WT mice
[1] = X-ray radiography of long bones
[2] = three-point bending of femur and tibia
[3] = immunohistochemistry, anti-DMP1-N 9B6.3, cortical bone
[4] = H&E histology of long bone
[5] = TRAP staining, 6-month-old mice

B1: Dentin matrix protein 1 (DMP1): S89G (protein)
parent chain: MKTVILLVFLWGLSCALPVARYHNTESESSEERTGDLAGSPPPPTNSESSEESQASPEGQANSDHTDSSESGEELGYDRGQYRPAGGLSKSTGTGADKEDDEDDSGDDTFGDEDNDLGPEEGQWGGPSKLDSDEDSTDTTQSSEDSTSQENSAQDTPSDSKDHDSEDEADSRPEAGDSTQDSESEEQRVGGGSEGESSHGDGSEFDDEGMQSDDPESTRSDRGHARMSSAGIRSEESKGDHEPTSTQDSDDSQSVEFSSRKSFRRSHVSEEDYRGELTDSNSRETQSDSTEDTASKEESRSESQEDTAESQSQEDSPEGQDPSSESSEEAGEPSQESSSESQEGVTSESRGDNPDNTSQAGDQEDSESSEEDSLNTFSSSESQSTEEQADSESNESLSLSEESQESAQDGDSSSQEGLQSQSASTESRSQESQSEQDSRSEEDSDSQDSSRSKEESNSTGSASSSEEDIRPKNMEADSRKLIVDAYHNKPIGDQDDNDCQDGY
decreases: other: radiographic bone density [1] | other: bone mechanical strength [2] | expression_or_secretion [3] | other: articular cartilage thickness [4] | other: osteoclast number in bone [5]
